For 1 substance, Kd results are on record in article PMC4209899.

This data set has as its system Ifit1. The experiment in a line: filter binding. The conditions noted are these: 5' cap 0 (N-7 methylguanosine).

As a reminder, the Kd is the constant that tells how readily two partners part at equilibrium. Substance G3 VEEV TRD 5'-UTR RNA, cap 0 displayed a Kd of 91 nM. This lies in the double-digit nanomolar range.
